Test results reported in the nanobody polyreactivity screen of Harvey et al. (2022).

Experiment: yeast display, Sf9 membrane polyspecificity reagent, FACS + sequencing; frameworks hold sequencing errors
How it was run: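 Synthetic nanobody libraries on Saccharomyces cerevisiae BJ5465 were galactose-induced for 36–48 hours, stained 1 hour at 4 °C with 10% biotinylated, detergent-solubilized Sf9 membrane reagent and enriched on streptavidin microbeads. FACS then separated cells into low and high (top ~1%) gates by anti-HA (expression) and streptavidin (reagent binding) fluorescence. Genes were colony-PCR amplified, MiSeq 2 × 250 sequenced and CDR-length filtered. A clone's polyreactivity label is that of its gate of origin.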

Sequence	polyreactivity (PSR sort gate)
QVQLVESGGGLVQAGGSLSLSCAASGSTFIHNAMGWYRQAPGKERELVAAITSGGSTYYADSVKGRFTISRDNAKNTVYLQMNSLKPEDTAVYYCNRVSWRYSTMEYWGHGTQVTVSS	high polyreactivity
QVQLVESGGGLVQAGGSLSLSCAASGSTFKHYAMGWYRQAPGKERELVAAISSRGGSTHYADSVKGRFTISRDNAMNTVYLQMNSLKPEDTAVYYCARDTDPQSSRSSDYDYWGQGTHVTVSS	low polyreactivity
QVQLVESGGGLVQAGGSLSLSCAASGSTFNRYAMRSYRQAPGQESELVDTINLNTGSTYADSVKGRFTISRDNAKNTVYLEMNSVKPEDTAVYYCAAVGQTHPTSPLSTKYDYWGQGTQVTVSS	low polyreactivity
QVQLVESGGGLVQAGGSLSLSCAASGSTFPKYAMGWYRQAPGKERELVAAISGSGGSTYYADSVKGRFTISRDNAKNTVYLQMNSLKPEDTAVYYSAVAWNVRGVGARQRDIYGYWGQGTQVTVST	high polyreactivity
QVQLVESGGGLVQAGGSLSLSCAASGSTFRYYTMGWYRQAPGKERELVAAISWTGGGTYYADSVKGRFTISRDNAKNTVYLQMNSLKPEDTAVYYCAASYYYELFRFDYWGQGTQVTVSS	high polyreactivity
QVQLVESGGGLVQAGGSLSLSCAASGSTFSLNTKGWYRQAPRKERELVAAITSGGSTNYADSVKGRFTISRDNAKNTVYLQMNSLKPEDTAVYYCAATPGRGGGYNYWGQGSQVTVSS	low polyreactivity
QVQLVESGGGLVQAGGSLSLSCAASGSTFVGYAMGWYRQAPGKEREFVAAITRGGSTNYADSVKGRFTISRDNAKNTVYLQMNSLNPEDTAVYYCAARDRREGFNFDYWGQGTQVTVSS	low polyreactivity
QVQLVESGGGLVQAGGSLSLSCAASGSTYARYTMGWYRQAPGKERELVAAISGRGGSTYYADSVKGRFTISRDNAKNTVYLQMNSLKPEDTAVYYCAAHDTYHSYGLYSWGQGTQVTVSS	low polyreactivity
QVQLVESGGGLVQAGGSLSLSCAASGYIVKAYVMGWYRPAPGKVRELVAAITWSGGSTYYADTVKGRFTISRDNAKNTVYLQMNSLKPEDTAVYYCAAYARRYRTPYDFWGQGTQVTLSS	high polyreactivity
QVQLVESGGGLVQAGGSLSLSCAASGYTFLRYAMGWYRQAPGQERELVATISRSGGRTYYADSVKGRFTISRDNAKNTVYLLMNSLKPEDTSVYYCNAEAIVVNGGGYWGQGTQVTVSS	high polyreactivity
QVQLVESGGGLVQAGGSLSLSCAASGYTFYKYAMGSYIQAPGKERELVAAISSSGGSTYYADSVKGRFTISRDNAKNTVYLQMNSLKPEDTAVNYCAAYVYSNDYDYWGQGTQVTVSS	high polyreactivity
QVQLVESGGGLVQAGGSLSLSCAATGLTFQQYAMGWYRQAPWKERELVAAITVSGGHTYYADSVKGRFTISRDNAKNTVYLQMNTLKPEDTAVYYCAAPPGYTGRYDYYYCGQGTQVTVSS	high polyreactivity
QVQLVESGGGLVQAGGSLSLSCSASGRTLYFYAMGWYRQAPGKERELVAAIRWRGGSTYYADSVKGRFTISRDNAKNTVYLQMNSLKPEDTAVYYCAADVPSGYDYWGQGTQVTVSS	high polyreactivity
QVQLVESGGGLVQAGGSLSLSSAASGSTFHRNTMGWYRQAPGKERELVAGISLRGVRTYYADSVKGRFTISRDNAKNSVYLQMNSLKPEDTAVYYCAGGGPYTRNFKLGYWGQGTQVSVSS	high polyreactivity
QVQLVESGGGLVQAGGSLSLSWAASGSTFFNNAMGWYRQAPGKERELVAGISYGCGRTYYADSVKGRFTISRDNAKNTVFLQMNSLKPEDTAVYYCNTVTSPAPYYSYDRYYWGQGTQVTVSS	high polyreactivity
QVQLVESGGGLVQAGGSLTLICAASGRTLYLNAMGWYRQAPRKERELVAISSGGSTYYADSVKGRFTISRDNAKNTVYLQMNSLKPEVTAVYYCNADEHYHFCYVFWYAYDYWGQGTQVTVSS	low polyreactivity
QVQLVESGGGLVQAGGSNRLSCADSGLIFGFNTMGSYRQAPAKEREMVAVISSSGGSTYYADSVKARFTISRDNAKKTVYFQMNSLKPEDTAVYYSAARAYPVRYRRRDYWGQGTQVTVSS	high polyreactivity
QVQLVESGGGLVQAGGSQRLSCAASGRIFPGNAMGWYRQAPGKERELVAAIRWSGGSTYYADSVKGRFTISRDNAKNTVYLQMNSLKPEDTAVFYCAKDRGSVFKRKYYYWGQGTQVTVSS	low polyreactivity
QVQLVESGGGLVQAGGSRRLCCAASGITLPVYGMGWYIQAPGKERELVAVIDIVGITNYADSVKGRFPISRDNAKNTVYLMMNSLKPEDTAVYYCAKRYVYIADGGEYYYLGQGTQVTVSS	low polyreactivity
QVQLVESGGGLVQAGGSRRLRCAASGRTFWTYAMGWYRQAPGKEREFVAAISYSGSSTYADSVKGRFTISRDNATNTVYLQMKSLKPEDTAVYFCAAYLYTAVVAYGYVSWGQGTQVTVSS	low polyreactivity
QVQLVESGGGLVQAGGSRRLRCAASGSIISSYALGWYRQAPGQEMEFVAAISTGGRTYYADSVKGRFTISRDNGKNTVYLQMNSLKPEDTAVYYCAADGPLPHKVGTHTLDYWGQGTQVTVSS	low polyreactivity
QVQLVESGGGLVQAGGSRRLSCAASGFTFLAYALGWYRQAPGKERELVAAISWDGGSTYYADSVKGRFTISRDNAKNTVYLQMNSLKPEDTAVYYCNRRSRRQGGYWGQGTQVTVSS	high polyreactivity

Sequence	polyreactivity (PSR sort gate)
QVQLVESGGGLVQAGGSRRLSCAASGFTFQDYAMGWYRQAPGKERELVAAISKSGGRTYYADSVKRRFTISRDNAKKTVYLEMNSLKPEETAVYYCAALPLYSQDYDYWGPGTQVTVSS	high polyreactivity
QVQLVESGGGLVQAGGSRRLSCAASGGTFVSYAMGWYIQAPGKERELVADITYSGGSTYYADSVKGRFTISRDNAKNTVYLQMNSLKPEDTAVYYCAADLGRNLLHTYYYWGQGTQVTVSS	low polyreactivity
QVQLVESGGGLVQAGGSRRLSCAASGISFGSYVMGWYRQAPGKERELVAAISWSGGSTNYADSVKGRFTISRDNSKNTVYLQMNILKPEDTAVFYCAAEYDVYGYYYWGQGTQVTVSS	high polyreactivity
QVQLVESGGGLVQAGGSRRLSCAASGRTFIVYAMGWYRQAPGKERELVARISSGSRTSYADSVKGRFTISRDNAKNTVYLQMNSLKPEDTAVYYCAKSRVIKYEFDYWGQGTQVTVSS	low polyreactivity
QVQLVESGGGLVQAGGSRRLSCAASGRTFQYYAMGCYRQAPGKERELVASITYNGDITYYADSVKGRFTISRDNAKNTVYLQMNSLKPEDTAVYYCAATKFSDFGYQAVIGYGYWGQGTQVTVSS	low polyreactivity
QVQLVESGGGLVQAGGSRRLSCAASGRTIGVYAMGWYRQAPGKERELVAAFSWSGGTTYYADSVKGRFTISCDNAMNTVYLQLNSLKPEDNAVYYCAADSFTEVDYWGQGTQVTVSS	low polyreactivity
QVQLVESGGGLVQAGGSRRLSCAASGSIFTSNAMGWYRQAPGNERDLVAVITGSTGRTHYADSVKGRFTISRDNAMNTVYLQMNSLKPEDTAVYYFSAGLTFVTNFDYWGQGTHVTVSS	low polyreactivity
QVQLVESGGGLVQAGGSRRLSCAASGSIFVSNAMGWDRQAPGKERELVAAISGGCSTYYADSVKGRFTISRDNAKNTVYLQMNSLKPEDTAVYYCNALFDGYAQDLDYDYWGQGTQVTVSS	low polyreactivity
QVQLVESGGGLVQAGGSRRLSCAASGSTFAYYAMGWYRQAPGKERELVAAISWRGGSTYYADSVKGRFTISRDNAKNTVYLQMNSLKPEDTAVYYCATLSAWKASSYDYWGQGTQVTVSS	high polyreactivity
QVQLVESGGGLVQAGGSRRLSCAASGSTFGWYVMGWYRPAPGKDREFVAAIDNSGGDTYYADSLKGRFTISRDTAKNTVYLQMNSLKPEDTAVYYCDDEAYTRASFENDYWGQGTQVTVSS	low polyreactivity
QVQLVESGGGLVQAGGSRRLSCAASGSTFQYNAMGWYRQAPGKDREWVAAITGSGGSTYYADSVKGRFTISRDNSKNTVYLQMNSLKPEDTAVYYCAKRVRSFNWVLARHKYDYWGQGTQVTVSS	low polyreactivity
QVQLVESGGGLVQAGGSVRLSCAASGLIFGGYTMGWYRQAPGKDRELVAAIDSADSTYYADSVKGRFTISRDNAKNTVYLQMNSLKPEDTAVYYCATYWYYSGPAYSLRETGGVNYWGQGTQVTVSS	low polyreactivity
QVQLVESGGGLVQAGGSVRLSCAASGSTIPPKVMGWYREAPGKEREWVAAISWGGSSTYYADSVKGRFPISRDHAKNTVFVQKNCLQREETAVYYCNAEYRSPVYWWYYEYDYWGQGTQVTVSA	high polyreactivity
QVQLVESGGGLVQAGGSVSLSCAASGTFSPYAMGWYRQAPGKERELVADITSNTGRTYADSVKGRFTISRDNAKNTVYLKMNSLKPEDTSVYYCNTYGSGTHSSGYDYWGQGTQVTVSS	low polyreactivity
QVQLVESGGGLVQAGGTLGLSCAASGFIITQYAMGRYRQAPGKERELVAAISGNGGRTYYADSVKGRFTISRDNAKNTVYLQLNSLKPEDTAVYYCAVTRPGRRYPFGYDYWGQGTQVTVSS	high polyreactivity
QVQLVESGGGLVQAGGTLPLSCAASGFTVRSYAMGWYRQAPGEEREIVAAISRLGDSTYFADSVKGRFTISRDNAKNTVYLQMYSLITEDTAVYYCAKYGIASRFSRFDSWGQGTQVTVSS	high polyreactivity
QVQLVESGGGLVQAGGTLRLICADSGFTFPVYAMGWSRQAPGKERQLVAAITRSGGRTYYADSVKGRFRISRDNAKNTVYLQMNSLKPEDTAFYYCNADYPYGPGSRVRYDYWGQGTQVTVSS	high polyreactivity
QVQLVESGGGLVQAGGTLRLRCAASGSTFFPYAIGWYRPAPGKEWELVAAITSGGRTHYADSVKGRFTISRDNAKNTVYLQMMSLIPEDSAVYYCAAVVPRHLLTYRMDYWGQGNQVTVSS	high polyreactivity
QVQLVESGGGLVQAGGTLRLRCAPSGSIFWGNAIGWYRQAPGKERELVAAIDWSGGSTYYADSVKGRFTISRDNAKNTVYLLMYSLKPEDTAVYFCAASGRYDYDYWGQGTQVTVSS	low polyreactivity
QVQLVESGGGLVQAGGTLRLSCAASGFIFCTYAMGWSRQAPGKERELVAAISSRDVSTYYADSVKGRFTISRDNAKNTVYLQMNSLKPEDTAVYYCAAEDPYYYPYEYWGQGTQVTVSS	high polyreactivity
QVQLVESGGGLVQAGGTLRLSCAASGFIFTGYTMGWYRQAPGKERELVARISSGDSTKYADSVKGRFTISRDNAKNTVYLQMNSLKPEDTAVYYCNKRHGTYGSVYYSREGYWGQGTQVTVSS	high polyreactivity
